This passage reports Kd results from patent WO2021229104A1 (dated 2021).

In assay [1] the target is T1, recombinant biotinylated CD38 protein (Homo sapiens (Human), UniProt P28907 43-300, biotinylated (site not stated)).
T1 construct: also called biotinylated CD38 antigen; biotin-labelled recombinant CD38 protein
Put plainly: BLI (Octet), biotinylated recombinant CD38 on streptavidin sensors, seven nanobody concentrations, 1:1 model. For orientation: In BLI a coated tip is dipped into the sample, and binding shifts an interference pattern.

Assay [2] addresses T2, human CD38 receptor expressed on RPMI-8226 multiple myeloma cells and other CD38+ cell lines (human, UniProt P28907 1-300).
T2 construct: Endogenous CD38 on human cell lines; also called cyclic ADP-Ribose Hydrolase 1; ADPRC1
Put plainly: saturation binding of radiolabelled nanobody on CD38+ RPMI-8226 cells, 1 hour at 4 C.

B1: anti-CD38 nanobody 2F8 (Nb2F8) with C-terminal hexahistidine tag (VHH)
VHH: QVQLVESGGGSVQAGGSLRLSCAASGYTDSDYIMAWFRQAPGKEREVVATIYIGGTYIHYADSVKGRFTISRDNAENTVYLQMNNLKPEDTAMYYCAATKWRPFISTRAAEYNYWGQGTLVTVSS
notes: also called sdAb 2F8
With B1, in assay [1], the Kd (as a rule, a measure of binding affinity in units of concentration) came out at 0.7 nM.

B2: 111In-DTPA-Nb2F8 (untagged Nb2F8 conjugated to CHX-A''-DTPA and labelled with Indium-111) (VHH)
VHH: QVQLVESGGGSVQAGGSLRLSCAASGYTDSDYIMAWFRQAPGKEREVVATIYIGGTYIHYADSVKGRFTISRDNAENTVYLQMNNLKPEDTAMYYCAATKWRPFISTRAAEYNYWGQGTLVTVSS
modifications: CHX-A''-DTPA conjugated to the free epsilon-amino groups of lysines; chelated Indium-111
notes: also called m In-DTPA-Nb2F8; ul In-DTPA-Nb2F8
On to B2, for which the Kd in assay [2] came out at 16.7 nM.
